Measured values taken from publication PMC8762078 (The Journal of Biological Chemistry, 2021).

B1: LC3C (microtubule-associated protein 1A/1B light chain 3C) (natural protein, human, UniProt Q9BXW4 1-126, looked up)
chain: MPPPQKIPSVRPFKQRKSLAIRQEEVAGIRAKFPNKIPVVVERYPRETFLPPLDKTKFLVPQELTMTQFLSIIRSRMVLRATEAFYLLVNNKSLVSMSATMAEIYRDYKDEDGFVYMTYASQETFG
B2: p62 WT-AIM peptide (peptide)
peptide: SGGDDDWTHLSS
notes: also called p62 AIM; source: synthetic peptide; bought: Genosphere Biotechnologies and Peptide Synthetics
B3: p62 L341V-AIM peptide (peptide)
peptide: SGGDDDWTHVSS
notes: also called L341V-mutant peptide; mutant AIM; source: synthetic peptide; bought: Genosphere Biotechnologies and Peptide Synthetics

Assays:
Details in all cases: both partners purified
p62 WT-AIM peptide = biological target: B2; experiment: native MS; ESI-MS competition binding under nondenaturing conditions: each hATG8 titrated into an equimolar mixture of WT-AIM and L341V-AIM peptides (each 10 μM); read-out is the ratio of peak intensities of unbound WT and L341V peptides; ratios given for 20 μM hATG8; two independent experiments
[1] = biological target: LC3A (microtubule-associated protein 1A/1B light chain 3A) (human, UniProt Q9H492 1-121); experiment: ITC; MicroCal VP-ITC, 30 °C; protein 10 μM in the cell, 10 μl injections of peptide (100-150 μM); 25 mM potassium phosphate, 150 mM NaCl, pH 7.0; no reducing agent; one site binding model; two independent measurements
[2] = biological target: LC3B (microtubule-associated protein 1A/1B light chain 3B) (human, UniProt Q9GZQ8 1-120); experiment: as above
[3] = biological target: B1; experiment: as above
GABARAPL1 = GABARAPL1 (human, UniProt Q9H0R8 1-117); experiment: as above
GABARAPL2 = biological target: T1, GABARAPL2 (human, UniProt P60520 1-117); experiment: as above
T1 construct: GABARAPL2, human ATG8 protein of the GABARAP subfamily; 15N-labelled (13C,15N for assignment) in M9 minimal medium for the NMR experiments; Cloned into pGEX-4T-1 between BamHI and XhoI; thrombin cleavage may leave a few vector residues at the N-terminus (surmised); also called hATG8; source: E. coli BL21 (DE3), purified (Glutathione Sepharose, thrombin cleavage, ion exchange, gel filtration); not …
T1 sequence (P60520 whole entry): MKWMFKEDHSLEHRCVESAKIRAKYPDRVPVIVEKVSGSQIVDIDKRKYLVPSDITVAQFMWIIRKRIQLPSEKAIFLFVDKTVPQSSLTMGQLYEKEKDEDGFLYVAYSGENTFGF

Sequence of GABARAPL1 (Q9H0R8 whole entry): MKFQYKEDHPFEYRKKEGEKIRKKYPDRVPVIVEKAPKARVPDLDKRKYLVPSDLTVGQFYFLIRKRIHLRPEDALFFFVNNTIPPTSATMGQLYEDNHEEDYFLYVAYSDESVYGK

Row | Binder | ratio of unbound WT:L341V AIM peptides at 20 μM hATG8 (reference: L341V-AIM) (p62 WT-AIM peptide) | Kd [1] [µM] | dH [1] [kcal/mol] | stoichiometry N [1] | Kd [2] [µM] | dH [2] [kcal/mol] | Kd [3] [µM] | dH [3] [kcal/mol] | stoichiometry N [3] | Kd (GABARAPL1) [µM] | dH (GABARAPL1) [kcal/mol] | stoichiometry N (GABARAPL1) | dH (GABARAPL2) [kcal/mol] | stoichiometry N (GABARAPL2) | Kd (GABARAPL2) [µM]
1 | B1 | > 0.95 | – | – | – | – | – | – | – | – | – | – | – | – | – | –
2 | B2 | – | 4.55 | -17.9 | 1.05 | 3.83 | -10.7 | 16.8 | -3.59 | 0.82 | 3.23 | -5.61 | 0.86 | -2.43 | 1.07 | –
3 | B3 | – | – | -6.3 | – | 8.47 | – | – | -5.38 | 0.9 | 5.78 | -5.37 | 0.98 | -4 | 1.03 | 6.99
